Experimental data as given in US20110135573A1 (DYAX, published 2011).
Positions count from the first letter of the chain named.

Key:
[1] = biological target: MMP-9 (PMA-activated) (Homo sapiens (Human), UniProt P14780 107-707, Biotinylated for the phage selection; the biotin sites are not stated and the letters do not carry them.); test: apparent KD; method not stated
[2] = biological target: T1, Human MMP-9 catalytic domain (BIOMOL, SE-244) (human, UniProt P14780 107-457, limits assumed); test: Ki,app, enzyme inhibition assay (fluorogenic peptide substrate), small-scale sFab
T1 construct: domain: catalytic domain; also called Cat-huMMP-9; cat-huMMP-9
T1 sequence (P14780 107-457 limits assumed): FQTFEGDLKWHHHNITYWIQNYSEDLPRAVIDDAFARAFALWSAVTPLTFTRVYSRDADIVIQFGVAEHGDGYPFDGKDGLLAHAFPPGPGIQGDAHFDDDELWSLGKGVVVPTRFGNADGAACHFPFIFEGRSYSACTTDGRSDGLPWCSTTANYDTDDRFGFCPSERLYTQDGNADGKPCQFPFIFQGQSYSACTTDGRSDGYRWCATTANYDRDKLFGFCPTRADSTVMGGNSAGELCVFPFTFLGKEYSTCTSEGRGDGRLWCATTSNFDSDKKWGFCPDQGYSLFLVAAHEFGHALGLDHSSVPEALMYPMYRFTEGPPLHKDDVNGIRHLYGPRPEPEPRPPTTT

[3] = biological target: T2, MMP-1 (Biomol SE-180) (UniProt P03956 100-269, limits assumed); test: cell-based or functional assay
T2 sequence (looked up): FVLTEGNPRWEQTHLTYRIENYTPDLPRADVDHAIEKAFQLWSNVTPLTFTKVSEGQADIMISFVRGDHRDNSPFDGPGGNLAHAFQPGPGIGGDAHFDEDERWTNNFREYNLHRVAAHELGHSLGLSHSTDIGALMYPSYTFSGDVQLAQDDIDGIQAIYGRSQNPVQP

[4] = biological target: TACE (R&D Systems) (UniProt P78536 215-671, limits assumed); test: cell-based or functional assay
TACE (R&D Systems), sequence (P78536 215-671 limits assumed): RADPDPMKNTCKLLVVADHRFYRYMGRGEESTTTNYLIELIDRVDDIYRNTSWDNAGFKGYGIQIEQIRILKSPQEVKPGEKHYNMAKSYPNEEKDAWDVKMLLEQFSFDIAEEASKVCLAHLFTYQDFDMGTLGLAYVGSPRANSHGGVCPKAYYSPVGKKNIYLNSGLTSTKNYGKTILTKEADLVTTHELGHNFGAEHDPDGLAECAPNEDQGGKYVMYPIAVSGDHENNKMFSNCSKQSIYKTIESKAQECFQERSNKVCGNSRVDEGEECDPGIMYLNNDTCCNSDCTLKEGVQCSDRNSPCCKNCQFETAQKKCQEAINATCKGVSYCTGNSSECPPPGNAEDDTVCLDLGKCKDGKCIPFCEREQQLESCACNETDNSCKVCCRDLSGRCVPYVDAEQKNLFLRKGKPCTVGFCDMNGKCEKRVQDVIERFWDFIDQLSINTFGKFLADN

[5] = biological target: MMP-16 (Calbiochem #475939) (UniProt P51512 120-292, limits assumed); test: cell-based or functional assay
MMP-16 (Calbiochem #475939), sequence (P51512 120-292 limits assumed): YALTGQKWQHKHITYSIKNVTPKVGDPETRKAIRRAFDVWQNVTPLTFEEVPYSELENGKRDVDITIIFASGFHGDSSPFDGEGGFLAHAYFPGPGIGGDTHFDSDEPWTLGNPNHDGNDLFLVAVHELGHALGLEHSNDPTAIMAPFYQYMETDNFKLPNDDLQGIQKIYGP

[6] = biological target: MMP-8 (Biomol SE-255) (UniProt P22894 100-262, limits assumed); test: cell-based or functional assay
MMP-8 (Biomol SE-255), sequence (P22894 100-262 limits assumed): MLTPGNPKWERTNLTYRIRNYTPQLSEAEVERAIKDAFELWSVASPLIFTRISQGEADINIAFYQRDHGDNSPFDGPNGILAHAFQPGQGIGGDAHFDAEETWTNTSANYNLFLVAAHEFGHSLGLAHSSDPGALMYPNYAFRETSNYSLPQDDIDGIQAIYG

[7] = biological target: MMP-14 (Biomol SE-259) (UniProt P50281 112-284, limits assumed); test: cell-based or functional assay
[8] = biological target: T3, MMP-7 (Biomol SE-181) (UniProt P09237 95-267); test: cell-based or functional assay
T3 sequence (looked up): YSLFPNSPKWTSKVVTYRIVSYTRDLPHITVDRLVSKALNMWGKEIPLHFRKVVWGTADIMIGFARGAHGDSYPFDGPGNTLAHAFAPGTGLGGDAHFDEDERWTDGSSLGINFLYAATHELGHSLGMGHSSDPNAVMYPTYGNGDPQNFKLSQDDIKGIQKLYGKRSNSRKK

[9] = biological target: MMP-12 (Biomol SE-138) (UniProt P39900 106-263, limits assumed); test: cell-based or functional assay
MMP-12 (Biomol SE-138), sequence (P39900 106-263 limits assumed): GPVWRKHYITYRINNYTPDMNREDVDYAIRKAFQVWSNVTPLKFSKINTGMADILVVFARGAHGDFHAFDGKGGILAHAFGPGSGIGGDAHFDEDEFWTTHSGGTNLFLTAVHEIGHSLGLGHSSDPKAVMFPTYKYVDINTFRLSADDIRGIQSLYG

[10] = biological target: MMP-3 (R&D Systems #513-MP) (UniProt P08254 18-477, limits assumed); test: cell-based or functional assay
MMP-3 (R&D Systems #513-MP), sequence (P08254 18-477 limits assumed): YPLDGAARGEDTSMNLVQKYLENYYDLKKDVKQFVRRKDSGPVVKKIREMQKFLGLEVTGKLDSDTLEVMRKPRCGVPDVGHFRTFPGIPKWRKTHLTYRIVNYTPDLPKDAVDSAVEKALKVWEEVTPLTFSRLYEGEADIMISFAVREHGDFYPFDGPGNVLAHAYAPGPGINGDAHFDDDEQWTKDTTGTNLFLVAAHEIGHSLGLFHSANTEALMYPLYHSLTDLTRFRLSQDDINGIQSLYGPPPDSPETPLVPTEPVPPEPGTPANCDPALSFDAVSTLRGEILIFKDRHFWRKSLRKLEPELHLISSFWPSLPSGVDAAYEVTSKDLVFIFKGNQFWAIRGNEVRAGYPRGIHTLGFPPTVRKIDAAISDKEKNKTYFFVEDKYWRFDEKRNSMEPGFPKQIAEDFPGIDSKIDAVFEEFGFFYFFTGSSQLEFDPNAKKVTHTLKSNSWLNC

[11] = biological target: MMP-15 (Calbiochem #475938) (UniProt P51511 132-304, limits assumed); test: cell-based or functional assay
MMP-15 (Calbiochem #475938), sequence (P51511 132-304 limits assumed): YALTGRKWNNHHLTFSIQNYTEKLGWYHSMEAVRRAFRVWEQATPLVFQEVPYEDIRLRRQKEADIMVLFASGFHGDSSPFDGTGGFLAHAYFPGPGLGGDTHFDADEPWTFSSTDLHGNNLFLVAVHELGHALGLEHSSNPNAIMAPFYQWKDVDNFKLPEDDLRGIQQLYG

[12] = biological target: MMP-13 (Biomol SE-246) (UniProt P45452 104-274); test: cell-based or functional assay
[13] = biological target: MMP-10 (Biomol SE-329) (UniProt P09238 99-265, limits assumed); test: cell-based or functional assay
MMP-10 (Biomol SE-329), sequence (P09238 99-265 limits assumed): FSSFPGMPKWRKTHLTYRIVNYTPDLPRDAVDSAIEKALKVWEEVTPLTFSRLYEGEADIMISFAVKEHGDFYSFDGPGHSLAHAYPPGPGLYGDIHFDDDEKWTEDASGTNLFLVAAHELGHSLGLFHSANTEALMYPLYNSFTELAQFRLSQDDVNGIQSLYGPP

[14] = biological target: T4, human MMP-2 (Biomol #SE-237) (human, UniProt P08253 110-452, limits assumed); test: Ki,app, enzyme inhibition assay (fluorogenic peptide substrate), medium-scale sFab
T4 construct: also called hMMP-2
T4 sequence (P08253 110-452 limits assumed): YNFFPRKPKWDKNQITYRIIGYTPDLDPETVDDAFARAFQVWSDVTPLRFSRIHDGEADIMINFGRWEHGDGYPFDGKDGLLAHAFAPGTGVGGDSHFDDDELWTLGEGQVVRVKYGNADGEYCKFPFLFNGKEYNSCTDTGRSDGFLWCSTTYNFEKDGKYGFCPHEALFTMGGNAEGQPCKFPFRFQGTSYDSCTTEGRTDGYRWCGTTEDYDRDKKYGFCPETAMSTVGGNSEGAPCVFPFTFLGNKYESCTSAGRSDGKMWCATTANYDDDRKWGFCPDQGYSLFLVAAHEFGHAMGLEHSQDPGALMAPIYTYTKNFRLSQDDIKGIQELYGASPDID

[15] = biological target: T5, Mouse MMP-9 (R&D, 909-MM), APMA-activated (mouse, UniProt P41245 108-730, limits assumed); test: as above
T5 construct: also called mMMP-9; mouse MMP-9 (R&D Systems #909-MM-010)
T5 sequence (P41245 108-730 limits assumed): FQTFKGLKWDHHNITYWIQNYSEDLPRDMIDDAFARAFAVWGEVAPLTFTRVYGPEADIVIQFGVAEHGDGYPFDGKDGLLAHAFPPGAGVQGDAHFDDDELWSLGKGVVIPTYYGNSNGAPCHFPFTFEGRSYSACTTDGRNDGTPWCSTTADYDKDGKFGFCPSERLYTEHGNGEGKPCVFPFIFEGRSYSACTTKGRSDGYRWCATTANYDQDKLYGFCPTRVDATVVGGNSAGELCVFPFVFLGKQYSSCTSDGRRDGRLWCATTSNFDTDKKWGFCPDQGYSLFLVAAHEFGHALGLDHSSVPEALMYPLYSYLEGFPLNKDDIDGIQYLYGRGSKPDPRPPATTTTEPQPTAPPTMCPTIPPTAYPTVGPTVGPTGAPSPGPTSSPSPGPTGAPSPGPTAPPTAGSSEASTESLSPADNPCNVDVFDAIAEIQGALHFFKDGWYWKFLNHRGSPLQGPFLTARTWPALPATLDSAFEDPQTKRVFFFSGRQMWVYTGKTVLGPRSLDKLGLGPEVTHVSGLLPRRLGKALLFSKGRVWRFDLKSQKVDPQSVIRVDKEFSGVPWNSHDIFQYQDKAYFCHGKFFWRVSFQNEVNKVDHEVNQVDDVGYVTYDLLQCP

[16] = biological target: T1, Human MMP-9 catalytic domain (BIOMOL, …); test: as above
[17] = biological target: T6, MMP-26 (Dyax prep #020209) (UniProt Q9NRE1 90-261, limits assumed); test: cell-based or functional assay
T6 sequence (looked up): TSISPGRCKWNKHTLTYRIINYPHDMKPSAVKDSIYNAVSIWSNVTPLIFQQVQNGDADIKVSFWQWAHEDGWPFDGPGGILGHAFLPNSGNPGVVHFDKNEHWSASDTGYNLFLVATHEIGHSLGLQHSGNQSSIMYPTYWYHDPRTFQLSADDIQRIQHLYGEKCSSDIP

[18] = biological target: T1, Human MMP-9 catalytic domain (BIOMOL, …); test: Ki,app, enzyme inhibition assay (fluorogenic peptide substrate), small-scale sFab; remark: listed apart in the source
Description: (§1) Target enzymes were incubated with inhibitor for two hours at 30° C. in reaction buffer (50 mM Tris-HCl pH 7.5, 150 mM NaCl, 5 mM CaCl₂, 0.05% Brij-35) in a total volume of 90 μL using a white 96 well plate (Costar). […] An anti-MMP-2 antibody (R&D Systems polyclonal IgG #AF902) was similarly tested with 200 nM as the highest inhibitor concentration. Reactions were initiated by the addition of 10 μL of a 10× concentrated stock of substrate, Mca-Lys-Pro-Leu-Gly-Leu-Dap(Dnp)-Ala-Arg-NH2, (Bachem M-2350), at final concentration of 10 μM and monitored at 30° C. in a Molecular Devices' Gemini fluorescence plate reader. The excitation and emission wavelengths were set at 328 nm and 393 nm, respectively. Kinetic data were acquired by the increase in fluorescence, and initial rates for each condition were plotted against the total inhibitor concentration. Reactions were performed in duplicates and all data replicates were plotted in a single graph and fit to the following equation¹: […]

[19] = biological target: T4, human MMP-2 (Biomol #SE-237); test: Ki,app, enzyme inhibition assay (fluorogenic peptide substrate), medium-scale sFab; remark: listed apart in the source
Description: as §1

[20] = biological target: T5, Mouse MMP-9 (R&D, 909-MM), …; test: as above; remark: listed apart in the source
Description: as §1

[21] = biological target: T1, Human MMP-9 catalytic domain (BIOMOL, …); test: as above; remark: listed apart in the source
Description: as §1

[22] = biological target: T4, human MMP-2 (Biomol #SE-237); test: Ki,app, enzyme inhibition assay (fluorogenic peptide substrate), IgG
[23] = biological target: T5, Mouse MMP-9 (R&D, 909-MM), …; test: as above
[24] = biological target: T1, Human MMP-9 catalytic domain (BIOMOL, …); test: as above
[25] = biological target: T4, human MMP-2 (Biomol #SE-237); test: Ki,app, enzyme inhibition assay (fluorogenic peptide substrate), small-scale sFab
Description: as §1

[26] = biological target: T5, Mouse MMP-9 (R&D, 909-MM), …; test: as above
Description: as §1

MMP-9 (PMA-activated), sequence (P14780 107-707 limits assumed, form in doubt): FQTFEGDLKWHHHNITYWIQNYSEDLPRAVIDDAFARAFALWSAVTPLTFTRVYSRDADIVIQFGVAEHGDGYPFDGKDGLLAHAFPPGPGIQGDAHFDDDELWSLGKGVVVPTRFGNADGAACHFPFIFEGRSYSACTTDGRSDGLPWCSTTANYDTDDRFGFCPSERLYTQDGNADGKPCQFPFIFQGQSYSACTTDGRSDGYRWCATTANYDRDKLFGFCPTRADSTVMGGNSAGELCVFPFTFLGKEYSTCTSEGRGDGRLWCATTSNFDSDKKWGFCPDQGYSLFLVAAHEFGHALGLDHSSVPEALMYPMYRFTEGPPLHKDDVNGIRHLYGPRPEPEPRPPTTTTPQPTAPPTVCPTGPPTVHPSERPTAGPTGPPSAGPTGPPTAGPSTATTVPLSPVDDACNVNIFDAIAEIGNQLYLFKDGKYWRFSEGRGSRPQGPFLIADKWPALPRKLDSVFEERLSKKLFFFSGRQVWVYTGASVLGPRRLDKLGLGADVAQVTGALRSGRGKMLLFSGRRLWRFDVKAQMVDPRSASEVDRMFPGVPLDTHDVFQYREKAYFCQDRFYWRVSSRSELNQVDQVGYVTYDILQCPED

B1: M0078-G07 (Fab, V domains shown)
VH: EVQLLESGGGLVQPGGSLRLSCAASGFTFSSYTMEWVRQAPGKGLEWVSWISPSGGYTFYADSVKGRFTISRDNSKNTLYLQMNSLRAEDTALYYCARGYSYGSIDLWGRGTLVTVSS
VL: DIQMTQSPGTLSVSPGERATLSCRASQSVSSDLAWYQHKPGQAPRLLIYGVSTKATGVPARFSGSGSGTEFTLTISSLQSEDLAVYYCQQYHNWPPLTFGGGTKVEIK
notes: variable domains only; also called Fab M0078-G07
Kd [1]: 3.1 nM

B2: M0279-A03 (Fab, V domains shown)
VH: EVQLLESGGGLVQPGGSLRLSCAASGFTFSQYPMWWVRQAPGKGLEWVSYIVPSGGRTYYADSVKGRFTISRDNSKNTLYLQMNSLRAEDTAVYYCAKDRAYGDYVGWNGFDYWGQGTLVTVSS
VL: DIQMTQSPATLSVSPGERVTLSCKASHSISRNLAWYQQKPGQAPRLLIFGASTRATGIPARFSGSGSGTEFTLTISSLEAEDFAVYYCQQRRNWPVTFGPGTKLDFK
notes: sFab; variable domains only; also called M279-A03; M279-A03 sFab
Ki [2]: 2.2 nM | IC50 (enzyme inhibition) [3]: > 500 nM | IC50 (enzyme inhibition) [4]: > 500 nM | IC50 (enzyme inhibition) [5]: > 500 nM | IC50 (enzyme inhibition) [6]: > 500 nM | IC50 (enzyme inhibition) [7]: > 500 nM | IC50 (enzyme inhibition) [8]: > 500 nM | IC50 (enzyme inhibition) [9]: > 500 nM | IC50 (enzyme inhibition) [10]: > 500 nM | IC50 (enzyme inhibition) [11]: > 500 nM | IC50 (enzyme inhibition) [12]: > 500 nM | IC50 (enzyme inhibition) [13]: > 500 nM | Ki [14]: > 430 nM | Ki [15]: 24 nM | Ki [16]: 1.6 nM

B3: M0279-B02 (Fab, V domains shown)
VH: B2 VH
VL: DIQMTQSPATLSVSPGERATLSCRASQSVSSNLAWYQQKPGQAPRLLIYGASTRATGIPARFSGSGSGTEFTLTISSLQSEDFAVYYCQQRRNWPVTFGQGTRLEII
notes: sFab; variable domains only; also called M279-B02
Ki [2]: 2.6 nM | IC50 (enzyme inhibition) [3]: > 1000 nM | IC50 (enzyme inhibition) [4]: > 1000 nM | IC50 (enzyme inhibition) [5]: > 1000 nM | IC50 (enzyme inhibition) [6]: > 1000 nM | IC50 (enzyme inhibition) [7]: > 1000 nM | IC50 (enzyme inhibition) [17]: > 1000 nM | IC50 (enzyme inhibition) [8]: > 1000 nM | IC50 (enzyme inhibition) [9]: > 1000 nM | IC50 (enzyme inhibition) [10]: > 1000 nM | IC50 (enzyme inhibition) [11]: > 1000 nM | IC50 (enzyme inhibition) [12]: > 1000 nM | IC50 (enzyme inhibition) [13]: > 1000 nM | Ki [14]: > 1000 nM | Ki [15]: 64 nM | Ki [16]: 6.5 nM

B4: M0256-D11 (Fab, V domains shown)
VH: B2 VH with Q31H, P33D, Y50V, V52Y, P53S, R57P, Y59F
VL: DIQMTQSPATLSLSPGERATLSCRASQSISSFLAWYQQKPGQAPRLLIYDASYRATGIPARFSGSGSGTDFTLTISSLEPEDYAVYYCQQRGNWPITFGQGTRLEIK
notes: sFab; variable domains only; also called M256-D11; 539A-M0256-D11
Ki [18]: 0.3 nM | Ki [19]: 0.5 nM | Ki [20]: 0.6 nM | Ki [21]: 0.3 nM

B5: X0106-A01 (antibody, V domains shown)
VH: B2 VH with Q31H, P33D, Y50V, V52Y, P53S, R57P, Y59F
VL: B4 VL with D1E, Q3V, M4L, Y83F
notes: Produced and tested as IgG1; germlined, optimized version of M0256-D11; also called X106-A01; X106-A01 IgG
Ki [22]: 0.34 nM | Ki [23]: 0.25 nM | Ki [24]: 0.1 nM | IC50 (enzyme inhibition) [3]: > 1000 nM | IC50 (enzyme inhibition) [4]: > 1000 nM | IC50 (enzyme inhibition) [5]: > 1000 nM | IC50 (enzyme inhibition) [6]: > 1000 nM | IC50 (enzyme inhibition) [7]: > 1000 nM | IC50 (enzyme inhibition) [17]: 12 nM | IC50 (enzyme inhibition) [8]: 900 nM | IC50 (enzyme inhibition) [9]: > 1000 nM | IC50 (enzyme inhibition) [10]: > 1000 nM | IC50 (enzyme inhibition) [11]: > 1000 nM | IC50 (enzyme inhibition) [12]: > 1000 nM | IC50 (enzyme inhibition) [13]: > 1000 nM

B6: M0276-F11 (Fab, V domains shown)
VH: B2 VH with Q31W, P33D, Y50V, V52Y, P53S, R57P, Y59F
VL: B4 VL
notes: sFab; variable domains only; also called M276-F11
Ki [25]: 0.2 nM | Ki [26]: 0.4 nM | Ki [18]: 0.2 nM | Ki [19]: 0.4 nM | Ki [20]: 0.6 nM | Ki [21]: 0.4 nM

B7: M0307-F04 (Fab, V domains shown)
VH: B2 VH with Q31L, P33D, Y50V, V52Y, P53S, R57Y, Y59G
VL: B4 VL
notes: sFab; variable domains only; also called M307-F04
Ki [25]: 0.1 nM | Ki [26]: 0.1 nM | Ki [18]: 0.1 nM | Ki [19]: 0.4 nM | Ki [20]: 0.4 nM | Ki [21]: 0.8 nM

B8: M0288-C08 (Fab, V domains shown)
VH: B2 VH
VL: DIQMTQSPGTLSVSPGERVTLSCRASQSVSSYLAWYQQKPGQAPRLLIYGASTRVTGIPARFSGSGSGTEFTLTISSLQSEDFAVYYCQQRSSWPITFGQGTRLEIK
notes: sFab; variable domains only; also called M288-C08
Ki [2]: 2 nM | Ki [14]: > 1000 nM | Ki [15]: 13 nM | Ki [16]: 1.8 nM

B9: M0274-G08 (Fab, V domains shown)
VH: B2 VH with Q31V, P33D, Y50V, V52Y, R57A
VL: B4 VL
notes: sFab; variable domains only; also called M274-G08
Ki [18]: 0.6 nM | Ki [19]: 0.4 nM | Ki [20]: 0.6 nM | Ki [21]: 0.5 nM

B10: M0275-D03 (Fab, V domains shown)
VH: EVQLLESGGGLVQPGGSLRLSCAASGFTFSQYDMWWVRQAPGKGLEWVSVIYPSGTTFYADSVKGRFTISRDNSKNTLYLQMNSLRAEDTAVYYCAKDRAYGDYVGWNGFDYWGQGTLVTVSS
VL: B4 VL
notes: sFab; variable domains only; also called M275-D03
Ki [25]: 0.7 nM | Ki [26]: 1.2 nM | Ki [18]: 0.6 nM | Ki [19]: 0.5 nM | Ki [20]: 1 nM | Ki [21]: 0.6 nM
